Source: the supplement of paper PMC10567573

B1: PLD5 (parent)
chain: KRTYWPDLDAKIREALVLRSVRVR

Variants of: B1
Experiment: protein stability index of a GFP-peptide fusion (GPS, HEK-293T) (PSI 1-6); higher = more stable
Settings: c terminus: a fixed tail appended
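Also: lentivirally expressed fusions sorted by FACS into six bins by GFP to DsRed ratio, PSI derived from sequencing read proportions per bin multiplied by bin number.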

Variant	protein stability index
KRTYWPLLDAKIREALVLRSVRVR	1.82
KRTYWPFLDAKIREALVLRSVRVR	1.58
KRTYWPCLDAKIREALVLRSVRVR	1.61
KRTYWPVLDAKIREALVLRSVRVR	1.23
KRTYWPALDAKIREALVLRSVRVR	1.87
KRTYWPTLDAKIREALVLRSVRVR	2.39
KRTYWPELDAKIREALVLRSVRVR	1.02
KRTYWPRLDAKIREALVLRSVRVR	2.62
KRTYWPSLDAKIREALVLRSVRVR	2.02
KRTYWPYLDAKIREALVLRSVRVR	1.37
KRTYWPDLDAKIRGALVLRSVRVR	2.75
KRTYWPDLDAKIRHALVLRSVRVR	1.27
KRTYWPDLDAKIRKALVLRSVRVR	1.68
KRTYWPDLDAKIRPALVLRSVRVR	2.13
KRTYWPDLDAKIRSALVLRSVRVR	1.13
KRTYWPDLDAKIRCALVLRSVRVR	1.46
KRTYWPDLDAKIRAALVLRSVRVR	1.09
KRTYWPDLDAKIRTALVLRSVRVR	2.42
KRTYWPDLDAKIRQALVLRSVRVR	1.88
KRTYWPDLDAKIREALVVRSVRVR	1.6
KRTYWPDLDAKIREALVKRSVRVR	2.64
KRTYWPDLDAKIREALVERSVRVR	2.93
KRTYWPDLDAKIREALVFRSVRVR	1.78
KRTYWPDLDAKIREALVHRSVRVR	2.16

Variant	protein stability index
KRTYWPDLDAKIREALVWRSVRVR	2.04
KRTYWPDLDAKIREALVTRSVRVR	1.71
KRTYWPDLDAKIREALVIRSVRVR	1.64
KRTYWPDLDAKIREALVGRSVRVR	1.91
KRTYWPDLDAKIREALVYRSVRVR	2.09
KRTYWPDLDAKIREALVMRSVRVR	1.51
KRTYWPDLDAKIREALVSRSVRVR	1.88
KRTYWPDLDAKIREALVNRSVRVR	2.45
KRTYWPDLDAKIREALVRRSVRVR	2.12
KRTYWPDLDAKIREALVLRSARVR	1.84
KRTYWPDLDAKIREALVLRSTRVR	1.91
KRTYWPDLDAKIREALVLRSKRVR	2.75
KRTYWPDLDAKIREALVLRSFRVR	3.54
KRTYWPDLDAKIREALVLRSERVR	2.24
KRTYWPDLDAKIREALVLRSQRVR	2
KRTYWPDLDAKIREALVLRSHRVR	2.11
KRTYWPDLDAKIREALVLRSRRVR	2.4
KRTYWPDLDAKIREALVLRSGRVR	2.4
KRTYWPDLDAKIREALVLRSNRVR	2.48
KRTYWPDLDAKIREALVLRSSRVR	2.09
KRTYWPDLDAKIREALVLRSMRVR	2.51
KRTYWPDLDAKIREALVLRSIRVR	1.66
KRTYWPDLDAKIREALVLRSYRVR	2.68
KRTYWPDLDAKIREALVLRSVRFR	1.9

Variant	protein stability index
KRTYWPDLDAKIREALVLRSVRCR	1.61
KRTYWPDLDAKIREALVLRSVRAR	1.93
KRTYWPDLDAKIREALVLRSVRKR	1.99
KRTYWPDLDAKIREALVLRSVRDR	2.35
KRTYWPDLDAKIREALVLRSVRHR	2.1
KRTYWPDLDAKIREALVLRSVRER	1.64
KRTYWPDLDAKIREALVLRSVRIR	1.96
KRTYWPDLDAEIREALVLRSVRVR	2.17
KRTYWPDLDAPIREALVLRSVRVR	2.14
KRTYWPDLDAHIREALVLRSVRVR	1.29
KRTYWPDLDAAIREALVLRSVRVR	1.42
KRTYWPDLDARIREALVLRSVRVR	1.47
KRTYWPDLDATIREALVLRSVRVR	2.42
KRTYWPDLDAYIREALVLRSVRVR	1.99
KRTYWPDLDAMIREALVLRSVRVR	1.04
KRTYWPDLDADIREALVLRSVRVR	2.29
KRTYWPDLDAKIPEALVLRSVRVR	1.79
KRTYWPDLDAKIGEALVLRSVRVR	1.89
KRTYWPDLDAKIMEALVLRSVRVR	1.54
KRTYWPDLDAKISEALVLRSVRVR	1.43
KRTYWPDLDAKIQEALVLRSVRVR	1.28
KRTYWPDLDAKIVEALVLRSVRVR	2.31
KRTYWPDLDAKIYEALVLRSVRVR	1.65
KRTYWPDLDAKINEALVLRSVRVR	1.61

Variant	protein stability index
KRTYWPDLDAKIHEALVLRSVRVR	2.6
KRTYWPDLDAKICEALVLRSVRVR	2.29
KRTYWPDLDAKIAEALVLRSVRVR	1.3
KRTYWPDLDAKIKEALVLRSVRVR	1.9
KRTYWPDLDAKIREALVLRNVRVR	1.77
KRTYWPDLDAKIREALVLRQVRVR	2.04
KRTYWPDLDAKIREALVLRTVRVR	1.96
KRTYWPDLDAKIREALVLRKVRVR	1.48
KRTYWPDLDAKIREALVLRRVRVR	2
KRTYWPDEDAKIREALVLRSVRVR	2.94
KRTYWPDRDAKIREALVLRSVRVR	3.06
KRTYWPDFDAKIREALVLRSVRVR	2
KRTYWPDTDAKIREALVLRSVRVR	2.24
KRTYWPDYDAKIREALVLRSVRVR	3.05
KRTYWPDMDAKIREALVLRSVRVR	2.72
KRTYWPDNDAKIREALVLRSVRVR	1.73
KRTYWPDQDAKIREALVLRSVRVR	1.88
KRTYWPDDDAKIREALVLRSVRVR	2.83
KRTYWPDWDAKIREALVLRSVRVR	1.85
KRTYWPDHDAKIREALVLRSVRVR	2.47
KRTYWPDPDAKIREALVLRSVRVR	1.82
KRTYWPDADAKIREALVLRSVRVR	2.18
